Laboratory results as given in US20210054030.

Legend:
[1] = system: TET1 TALE-VP64 (RG) (Xanthomonas (TALE scaffold)?); experiment: cell_activity; settings: 5mC at CpG (cellular, high); HeLa
[2] = system: TALE-(CP)3-VP64 (Xanthomonas (TALE scaffold)?); experiment: cell_activity; settings: HEK293T
[3] = system: TALE-(CV)3-VP64 (Xanthomonas (TALE scaffold)?); experiment: cell_activity; settings: HEK293T
[4] = system: TALE-(FT)3-VP64 (Xanthomonas (TALE scaffold)?); experiment: cell_activity; settings: HEK293T
[5] = system: TALE-(NP)3-VP64 (Xanthomonas (TALE scaffold)?); experiment: cell_activity; settings: HEK293T
[6] = system: TALE-HD (MAPK6 target) (Xanthomonas (TALE scaffold)?); experiment: inhibition; settings: MspI protection, 25 C
[7] = 6mA at bases 7-9 of the site, forward strand

Work on “TAGGCGTCCTCCGCGAC (double strand) [TET1 promoter, HeLa (highly methylated)]” yielded an activity (fold induction) [1] of 10.

With “CTGGCCAAATACGTA (double strand) [6mA reporter]” the activity (fold EGFP induction) [2, 7] was > 5, the activity (fold EGFP induction) [3, 7] was > 5 and the activity (fold EGFP induction) [4, 7] was > 5. The activity (fold EGFP induction) ([5]; 6mA at bases 7-9 of the site, forward strand, strongest of the 6mA-specific RVDs) was > 5.

With “TTCAGCTGGATCCCGGGAGGAGCGGATATAACCAGG (double strand) [MAPK6 probe, 5hmC]” the binding signal (fold higher Ki than for C) ([6]; 5hmC at second C of the MspI site CCGG (C14)) was > 30.

For “TTCAGCTGGATCCCGGGAGGAGCGGATATAACCAGG (double strand) [MAPK6 probe, 5mC]”, the binding signal (fold higher Ki than for C) ([6]; 5mC at second C of the MspI site CCGG (C14)) was > 30.

For “CTGGCCAAATACGTA (double strand) [A reporter]”, the 6mA/A selectivity ratio [2] was > 5 6mA/A ratio, the 6mA/A selectivity ratio [3] was > 5 6mA/A ratio and the 6mA/A selectivity ratio [4] was > 5 6mA/A ratio. The 6mA/A selectivity ratio [5] was > 5 6mA/A ratio.
